Drawing on patent US20250019439A1 (Adimab, published 2025), this text covers Kd for two molecules.

Assay [1] deals with T1, ADI-26921 anti-CD3 bsIgG.
T1 construct: anti-HER2 IgG with one Fab arm replaced by the anti-CD3 scFv (printed 'Vx-VH', read as VL-VH); S354C and Y349C mutations; also called anti-CD3 bsIgG (ADI-26921 scFv); not shown: scFv linker; anti-HER2 Fab arm (heavy and light chain); hinge and Fc with S354C/Y349C
The assay can be described thus: BLI; tip anti-CD3 bsIgG, solution ADI-34134 IgG. The procedure: (§1) ForteBio affinity measurements were performed generally as previously described (Estep et al., MAbs. 2013 5(2):270-8). Briefly, ForteBio affinity measurements were performed by loading antibody IgG or Fabs on-line onto AHC sensors. Sensors were equilibrated off-line in assay buffer for 30 minutes and then monitored on-line for 60 seconds for baseline establishment. For avid binding measurement, sensors with loaded antibodies were exposed to IgG or Fab solutions for 3 minutes, afterwards they were transferred to assay buffer for 3 minutes for off-rate measurement. Kinetics data were fit using a 1:1 binding model in the data analysis software provided by ForteBio to obtain equilibrium dissociation constant (KD=koff/kₒₙ) values. In each column, tip-immobilized antibodies are listed first and solution antibodies second.
(§2) Additional analysis was conducted using bispecific antibody formats incorporating anti-CD3 antibody variable domains. Bispecific antibodies were prepared using standard IgG formats (bsIgG) with replacement of Fab arms with anti-CD3 scFvs in Vx-VH orientation and with S354C and Y349C mutations for disulfide stabilization. Antibodies used for Fab arm replacement were anti-HER2 IgG antibodies, with one Fab arm from each replaced by a scFv corresponding to a different anti-CD3 antibody. […] In each column, tip-immobilized antibodies are listed first and solution antibodies second. Anti-CD3 antibodies associated with incorporated scFvs are listed by antibody number.

In assay [2] the target is T2, ADI-26906 anti-CD3 bsIgG.
T2 construct: anti-HER2 IgG with one Fab arm replaced by the anti-CD3 scFv (printed 'Vx-VH', read as VL-VH); S354C and Y349C mutations; also called anti-CD3 bsIgG (ADI-26906 scFv); not shown: scFv linker; anti-HER2 Fab arm (heavy and light chain); hinge and Fc with S354C/Y349C
The assay can be described thus: BLI; tip anti-CD3 bsIgG, solution ADI-34134 IgG. The procedure:
as §1, §2

Assay [3] addresses T3, ADI-26920 anti-CD3 bsIgG.
T3 construct: anti-HER2 IgG with one Fab arm replaced by the anti-CD3 scFv (printed 'Vx-VH', read as VL-VH); S354C and Y349C mutations; also called anti-CD3 bsIgG (ADI-26920 scFv); not shown: scFv linker; anti-HER2 Fab arm (heavy and light chain); hinge and Fc with S354C/Y349C
The assay can be described thus: BLI; tip anti-CD3 bsIgG, solution ADI-34134 IgG. Here is the method: as §1, §2

The target in assay [4] is T4, ADI-26920 IgG.
T4 construct: anti-CD3 IgG
The assay can be described thus: BLI; tip anti-CD3 IgG, solution ADI-34134 IgG. The procedure:
as §1
(§3) CTL-19613 is an IgG1 antibody prepared with anti-CD3 variable domains corresponding with those of clone 12C described in United States Publication Number US 2010/0183615 (e.g., see paragraphs 469-479 and FIG. 25 thereof), which also make up the CD3 binding domain of the bispecific antibody pasotuxizumab. […] In each column, tip-immobilized antibodies are listed first and solution antibodies second.

Assay [5] addresses T5, ADI-26916 IgG.
T5 construct: anti-CD3 IgG
The assay can be described thus: BLI; tip anti-CD3 IgG, solution ADI-34134 IgG. Here is the method: as §1, §3

Assay [6] has as its target T6, ADI-26941 IgG.
T6 construct: anti-CD3 IgG
Put plainly: BLI; tip anti-CD3 IgG, solution ADI-34134 IgG. Here is the method:
as §1, §3

Assay [7] concerns the target T7, ADI-26927 IgG.
T7 construct: anti-CD3 IgG
Put plainly: BLI; tip anti-CD3 IgG, solution ADI-34134 IgG. The procedure: as §1, §3

Assay [8] addresses T8, ADI-26921 IgG.
T8 construct: anti-CD3 IgG
The assay can be described thus: BLI; tip anti-CD3 IgG, solution ADI-34134 IgG. Here is the method: as §1, §3

The target of assay [9] is T9, ADI-22523 IgG.
T9 construct: anti-CD3 IgG
Put plainly: BLI; tip anti-CD3 IgG, solution ADI-34134 IgG. The procedure:
as §1, §3

Assay [10] deals with T10, ADI-26913 IgG.
T10 construct: anti-CD3 IgG
The assay can be described thus: BLI; tip anti-CD3 IgG, solution ADI-34134 IgG. The procedure: as §1, §3

Assay [11] concerns the target T11, ADI-26906 IgG.
T11 construct: anti-CD3 IgG
Put plainly: BLI; tip anti-CD3 IgG, solution ADI-34134 IgG. The procedure: as §1, §3

For assay [12], the target named is T12, ADI-26928 IgG.
T12 construct: anti-CD3 IgG
Put plainly: BLI; tip anti-CD3 IgG, solution ADI-34134 IgG. Here is the method:
as §1, §3

Assay [13] addresses T4, ADI-26920 IgG. Put plainly: BLI; tip ADI-34145 IgG, solution anti-CD3 IgG. Here is the method: as §1
(§4) In each column, tip-immobilized antibodies are listed first and solution antibodies second.

For assay [14], the target named is T5, ADI-26916 IgG. The assay can be described thus: BLI; tip ADI-34145 IgG, solution anti-CD3 IgG. Here is the method:
as §1, §4

In assay [15] the target is T13, ADI-26954 IgG.
T13 construct: anti-CD3 IgG
The assay can be described thus: BLI; tip ADI-34145 IgG, solution anti-CD3 IgG. The procedure: as §1, §4

In assay [16] the target is T9, ADI-22523 IgG. The assay can be described thus: BLI; tip ADI-34145 IgG, solution anti-CD3 IgG. Here is the method:
as §1, §4

Assay [17] deals with T10, ADI-26913 IgG. The assay can be described thus: BLI; tip ADI-34145 IgG, solution anti-CD3 IgG. The procedure: as §1, §4
Assay [18] has as its target T11, ADI-26906 IgG. Put plainly: BLI; tip ADI-34145 IgG, solution anti-CD3 IgG. Here is the method:
as §1, §4

Assay [19] addresses T14, ADI-26913 anti-CD3 bsIgG.
T14 construct: anti-HER2 IgG with one Fab arm replaced by the anti-CD3 scFv (printed 'Vx-VH', read as VL-VH); S354C and Y349C mutations; also called anti-CD3 bsIgG (ADI-26913 scFv); not shown: scFv linker; anti-HER2 Fab arm (heavy and light chain); hinge and Fc with S354C/Y349C
Put plainly: BLI; tip anti-CD3 bsIgG, solution ADI-34145 IgG. The procedure: as §1, §2

Assay [20] addresses T2, ADI-26906 anti-CD3 bsIgG. The assay can be described thus: BLI; tip anti-CD3 bsIgG, solution ADI-34145 IgG. Here is the method: as §1, §2

T11 sequence (VH, as listed by the source limits assumed, chain 1 of 2): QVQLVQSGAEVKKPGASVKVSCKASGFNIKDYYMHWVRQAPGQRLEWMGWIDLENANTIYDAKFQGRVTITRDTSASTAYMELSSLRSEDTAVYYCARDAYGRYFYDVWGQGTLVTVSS
T11 sequence (VL, as listed by the source limits assumed, chain 2 of 2): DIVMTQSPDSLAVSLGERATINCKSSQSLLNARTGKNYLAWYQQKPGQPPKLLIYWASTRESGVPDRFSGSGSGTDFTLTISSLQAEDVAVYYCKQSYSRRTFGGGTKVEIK
T4 sequence (VH, as listed by the source limits assumed, chain 1 of 2): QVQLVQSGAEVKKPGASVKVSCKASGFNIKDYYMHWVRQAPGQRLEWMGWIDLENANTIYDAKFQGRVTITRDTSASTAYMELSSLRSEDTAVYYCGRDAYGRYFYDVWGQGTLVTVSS
T4 sequence (VL, as listed by the source limits assumed, chain 2 of 2): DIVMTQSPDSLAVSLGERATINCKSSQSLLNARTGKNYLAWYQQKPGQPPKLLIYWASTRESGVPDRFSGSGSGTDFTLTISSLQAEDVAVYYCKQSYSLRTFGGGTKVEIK
T9 sequence (VH, as listed by the source limits assumed, chain 1 of 2): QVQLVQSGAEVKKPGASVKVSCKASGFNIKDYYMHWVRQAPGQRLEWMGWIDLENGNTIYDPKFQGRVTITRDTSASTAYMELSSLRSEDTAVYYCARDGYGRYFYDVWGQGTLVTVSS
T9 sequence (VL, as listed by the source limits assumed, chain 2 of 2): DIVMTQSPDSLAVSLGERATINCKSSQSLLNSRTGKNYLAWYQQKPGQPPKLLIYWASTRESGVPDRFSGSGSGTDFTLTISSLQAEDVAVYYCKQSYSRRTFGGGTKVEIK
T10 sequence (VH, as listed by the source limits assumed, chain 1 of 2): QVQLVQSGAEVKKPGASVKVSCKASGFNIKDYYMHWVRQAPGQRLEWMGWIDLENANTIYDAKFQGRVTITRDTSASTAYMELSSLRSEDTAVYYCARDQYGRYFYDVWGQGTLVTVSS
T5 sequence (VH, as listed by the source, chain 1 of 2): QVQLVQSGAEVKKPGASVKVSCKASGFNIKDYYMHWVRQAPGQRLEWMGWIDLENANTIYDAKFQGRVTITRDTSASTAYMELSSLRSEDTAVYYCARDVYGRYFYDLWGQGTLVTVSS
T7 sequence (VH, as listed by the source limits assumed, chain 1 of 2): as the sequence (VH, as listed by the source, chain 1 of 2) above, with N55E, A56G, V100R, R103A, L108V counted along it
T1 sequence (VH, as listed by the source limits assumed, chain 1 of 2): as the sequence (VH, as listed by the source, chain 1 of 2) above, with N55E, A56G, V100A, L108V counted along it
T8 sequence (VH, as listed by the source limits assumed, chain 1 of 2): as the sequence (VH, as listed by the source, chain 1 of 2) above, with N55E, A56G, V100A, L108V counted along it
T3 sequence (VH, as listed by the source limits assumed, chain 1 of 2): as the sequence (VH, as listed by the source, chain 1 of 2) above, with A97G, V100A, L108V counted along it
T12 sequence (VH, as listed by the source limits assumed, chain 1 of 2): as the sequence (VH, as listed by the source, chain 1 of 2) above, with N55E, A56G, A97G, V100A, R103L, L108V counted along it
T14 sequence (VH, as listed by the source limits assumed, chain 1 of 2): as the sequence (VH, as listed by the source, chain 1 of 2) above, with V100Q, L108V counted along it
T6 sequence (VH, as listed by the source limits assumed, chain 1 of 2): as the sequence (VH, as listed by the source, chain 1 of 2) above, with N55E, A56G, V100Q, L108V counted along it
T6 sequence (VL, as listed by the source limits assumed, chain 2 of 2): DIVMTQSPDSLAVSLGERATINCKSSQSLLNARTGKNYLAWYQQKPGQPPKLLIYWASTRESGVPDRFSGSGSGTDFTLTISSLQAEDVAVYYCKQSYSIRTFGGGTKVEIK
T13 sequence (VH, as listed by the source limits assumed, chain 1 of 2): as the sequence (VH, as listed by the source, chain 1 of 2) above, with V100N, R103G, L108V counted along it
T13 sequence (VL, as listed by the source limits assumed, chain 2 of 2): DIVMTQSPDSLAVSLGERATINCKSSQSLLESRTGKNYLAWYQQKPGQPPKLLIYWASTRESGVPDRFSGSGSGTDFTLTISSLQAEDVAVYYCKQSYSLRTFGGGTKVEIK

B1: ADI-34134 IgG (antibody, V domains shown)
VH: QVQLVQSGAEVKKPGSSVKVSCKASGGTFSSYAISWVRQAPGQGLEWMGGIIPIFGTANYAQKFQGRVTITADESTSTAYMELSSLRSEDTAVYYCARGAPNYYGSGGYDDGWFDPWGQGTLVTVSS
VL: EIVLTQSPGTLSLSPGERATLSCRASQSVSSDYLAWYQQKPGQAPRLLIYGASSRATGIPDRFSGSGSGTDFTLTISRLEPEDFAVYYCQQFGRVPTFGGGTKVEIK
For B1, the Kd in [1] was determined as 0.94 nM; in [2], 0.75 nM; in assay [3], 0.47 nM; in assay [4], 0.46 nM; in [5], 1.04 nM; in assay [6], 1.13 nM. The Kd in [7] is 0.45 nM; in [8], 0.57 nM; in assay [9] it was 0.37 nM; in [10], 0.77 nM; in assay [11] it was 0.43 nM; in assay [12], 0.85 nM.

B2: ADI-34145 IgG (antibody, V domains shown)
VH: EVQLLESGGGLVQPGGSLRLSCAASGFTFSSYAMSWVRQAPGKGLEWVSTISGSGGSTYYADSVKGRFTISRDNSKNTLYLQMNSLRAEDTAVYYCARLGGRRGSGSSYYYYYGMDVWGQGTTVTVSS
VL: not shown
notes: anti-ID IgG
In the case of B2, the Kd is 14.3 nM in assay [13]; 48 nM in [14]; 7.75 nM in assay [15]; 2.72 nM in assay [16]; 8.1 nM in assay [17]; 8.39 nM in assay [18]. Besides, the Kd in [19] stood at 14.7 nM; in [20], 13.4 nM.
